{"source": "the supplement of paper PMC6755084", "parents": {"B1": {"name": "minF1; a variant is named by its letters at N, in order (parent)", "chain": "GAGACCGCAACTGAAAAGTTGTTNNNNAANNNNGGNTNNATTTCTGCACGTAGAAGCAAAAGGC"}}}
{"variants_of": "B1", "assay": "fraction ligated after 30 min (ligated reads / total reads); higher = more ligase activity", "conditions": "with F1*subA RNA substrate (template-directed ligation), 42 °C", "procedure": "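Chip-synthesised pool of minF1 ligase ribozyme variants (single and double substitutions, single to quadruple deletions, bulge and P2 designed variants) was transcribed with T7 and reacted as a pool with excess substrate F1*subA for 30 min at 42 C in 50 mM EPPS pH 8.5, 25 mM MgCl2. Ligated and unligated RNAs were separated by PAGE, barcoded by RT and deep sequenced; fraction ligated = ligated reads / total reads, relative activity = FL / FL of wild-type minF1 (0.76); sequencing FL correlated with PAGE (R2 = 0.98). Sequences are the DNA template of the ribozyme.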"}
{"variant": "TAAAGGATTGA A29T", "fraction ligated": 0.00151}
{"variant": "AAGAGATGTGA", "fraction ligated": 0.00157}
{"variant": "CAAAGGAGTGA T23A A29T", "fraction ligated": 0.00224}
{"variant": "TAGATGATTGA T23A", "fraction ligated": 0.00257}
{"variant": "CAGATGGTGTA", "fraction ligated": 0.00171}
{"variant": "CAGATGGGTGA T23A", "fraction ligated": 0.00475}
{"variant": "TAGAGGATTGA T23A", "fraction ligated": 0.00191}
{"variant": "TAGAGGAGTGA T23A A29T", "fraction ligated": 0.00307}
{"variant": "CAGATGGTGTA T23A", "fraction ligated": 0.00242}
{"variant": "CAGAGGTGTGA A29T", "fraction ligated": 0.00368}
{"variant": "TAGAGATGTGA T23A A29G", "fraction ligated": 0.00131}
{"variant": "TAGAGATGTGA T23A A29T", "fraction ligated": 0.00334}
{"variant": "TAAAGGAGTGA T23A A29T", "fraction ligated": 0.00645}
{"variant": "GAAAGATGTGA T23C A28T A29G", "fraction ligated": 0.00212}
{"variant": "TAGAGGATGTA A29T", "fraction ligated": 0.00262}
{"variant": "TAGAGGATGTG T23A A29T", "fraction ligated": 0.00945}
{"variant": "AAGATATGTGA", "fraction ligated": 0.00183}
{"variant": "CAGAGATGTGA T23A A29G", "fraction ligated": 0.00348}
{"variant": "CAGAGATGTGA T23A A29T", "fraction ligated": 0.00283}
{"variant": "TAGATGGAGTG T23A G34T", "fraction ligated": 0.00936}
{"variant": "CAGATGGAGTG G34T", "fraction ligated": 0.0137}
{"variant": "AAGATGGAGTT G34T T37G", "fraction ligated": 0.00134}
{"variant": "CAGAGGATTGA", "fraction ligated": 0.00276}
{"variant": "CAAAGGAGTGA A29T", "fraction ligated": 0.00216}
{"variant": "CAGATGGAGTG T23A G34T", "fraction ligated": 0.0111}
{"variant": "CAGATGGATGA", "fraction ligated": 0.00376}
{"variant": "TAGATGGAGTT G34T T37G", "fraction ligated": 0.00107}
{"variant": "TAGAGGATGTG", "fraction ligated": 0.00216}
{"variant": "TAGAGGATGTA", "fraction ligated": 0.000988}
{"variant": "AAGAGGTGTGA A29T", "fraction ligated": 0.00145}
{"variant": "CAGATGATGTA T23A", "fraction ligated": 0.00233}
{"variant": "CAGAGGTGTGA", "fraction ligated": 0.00486}
{"variant": "AAGAGGAGTGA", "fraction ligated": 0.00337}
{"variant": "CAGATGGAGTT T23A G34T T37G", "fraction ligated": 0.00071}
{"variant": "TAAAGGATGTG A29T", "fraction ligated": 0.00445}
{"variant": "CAGAGGATGTA T23A A29T", "fraction ligated": 0.00576}
{"variant": "TAAAGATGTGA T23A A29T", "fraction ligated": 0.00358}
{"variant": "AAGATGAGTGA", "fraction ligated": 0.00469}
{"variant": "TAGAGATGTGA T23A A28T A29G", "fraction ligated": 0.00684}
{"variant": "CAAAGGATGTG T23A A29T", "fraction ligated": 0.00761}
{"variant": "AAGATGGAGTG G34T", "fraction ligated": 0.00776}
{"variant": "CAGATGATGTG T23A", "fraction ligated": 0.00584}
{"variant": "CAGAGATGTGA T23A", "fraction ligated": 0.00241}
{"variant": "TAGATGGATGA", "fraction ligated": 0.00101}
{"variant": "TAGATGATGTA T23A", "fraction ligated": 0.00397}
{"variant": "CAGAGATGTGA", "fraction ligated": 0.00372}
{"variant": "TAGAGATGTGA A29T", "fraction ligated": 0.00374}
{"variant": "TAGAGATGTGA A29G", "fraction ligated": 0.00391}
{"variant": "TAGATGGAGTG T23A", "fraction ligated": 0.00424}
{"variant": "TAGAGGTGTGA T23A A29T", "fraction ligated": 0.00331}
{"variant": "AAGAGATGTGA A28T A29G", "fraction ligated": 0.00397}
{"variant": "CAGATGGAGTG", "fraction ligated": 0.00678}
{"variant": "CAGATGGAGTA", "fraction ligated": 0.00249}
{"variant": "CAAAGGTGTGA A29T", "fraction ligated": 0.00133}
{"variant": "AAGATGGTGTA", "fraction ligated": 0.00401}
{"variant": "TAAAGGATGTA A29T", "fraction ligated": 0.00265}
{"variant": "AAAAGGTGTGA A29T", "fraction ligated": 0.00306}
{"variant": "TAAAGGTGTGA A29T", "fraction ligated": 0.0019}
{"variant": "CAGATATGTGA T23A", "fraction ligated": 0.00265}
{"variant": "TAGAGGATGTG A29T", "fraction ligated": 0.0045}
{"variant": "AAGATGGAGTA G34T", "fraction ligated": 0.00267}
{"variant": "AAGATGGAGTT G34T T37G A40G", "fraction ligated": 0.0006}
{"variant": "TAAAGGATGTG T23A A29T", "fraction ligated": 0.00674}
{"variant": "TAAAGGAGTGA A29T", "fraction ligated": 0.00185}
{"variant": "AAGAGGATGTA", "fraction ligated": 0.000999}
{"variant": "AAGAGGATGTG", "fraction ligated": 0.00366}
{"variant": "CAGATGAGTGA T23A", "fraction ligated": 0.00277}
{"variant": "TAGATGGATGA T23A", "fraction ligated": 0.00368}
{"variant": "AAAAGGAGTGA A29T", "fraction ligated": 0.00356}
{"variant": "CAGATGGAGTT T23A G34T T37G A40G", "fraction ligated": 0.00303}
{"variant": "TAGATGGAGTT T23A G34T T37G", "fraction ligated": 0.000868}
{"variant": "TAGATGGGTGA T23A", "fraction ligated": 0.000824}
{"variant": "CAGATGGATGA T23A", "fraction ligated": 0.00203}
{"variant": "CAGATGGAGTA T23A G34T", "fraction ligated": 0.00843}
{"variant": "TAAAGGTGTGA T23A A29T", "fraction ligated": 0.00275}
{"variant": "CAGAGATGTGA T23A A28T A29G", "fraction ligated": 0.00252}
{"variant": "AAGAGGATTGA", "fraction ligated": 0.00146}
{"variant": "TAGATGAGTGA", "fraction ligated": 0.00265}
{"variant": "CAGAGGATTGA T23A A29T", "fraction ligated": 0.00274}
{"variant": "CAGAGGTGTGA T23A", "fraction ligated": 0.00265}
{"variant": "CAGATGAGTGA", "fraction ligated": 0.00146}
{"variant": "TAGATGGAGTA T23A", "fraction ligated": 0.000612}
{"variant": "CAAAGGATTGA A29T", "fraction ligated": 0.0034}
